Reference: patent publication US20200385465A1 (SHANGHAI NOVAMAB BIOPHARMACEUTICALS, published 2020)
Blank lines part the entries; values can stand above or below the molecule they belong to.

Tests used:
[1] = target: T1, human full-length CD47 protein (human, UniProt Q08722 19-323); test: flow cytometry blocking assay, antibody together with 5 ug hSIRPa (ECD)-Fc-Biotin on hCD47 stable cells, SA-PE detection
T1 construct: whole, on cells; also called CD47 stably transferred cells; CD47 on the surface of erythrocyte

[2] = target: T1, human full-length CD47 protein; test: flow cytometry blocking assay, antibody together with hSIRPa (ECD)-Fc-Biotin on CD47 stable cells, SA-PE detection
[3] = target: T2, CD47 (rat), coated antigen protein (rat, UniProt P97829 19-140, limits assumed); test: ELISA, coated antigen, anti-HA and alkaline phosphatase detection
T2 construct: also called rat CD47; murine-derived CD47
T2 sequence (looked up): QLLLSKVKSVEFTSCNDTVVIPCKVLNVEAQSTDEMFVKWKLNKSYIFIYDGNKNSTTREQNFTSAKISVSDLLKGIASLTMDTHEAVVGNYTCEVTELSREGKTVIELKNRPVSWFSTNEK
Experimental: (§1) The specificity of the single domain antibody was determined based on the absorption value.

[4] = target: T3, CD47 (mouse), coated antigen protein (mouse, UniProt Q61735 19-140, limits assumed); test: as above
T3 construct: also called mouse CD47; murine-derived CD47
T3 sequence (looked up): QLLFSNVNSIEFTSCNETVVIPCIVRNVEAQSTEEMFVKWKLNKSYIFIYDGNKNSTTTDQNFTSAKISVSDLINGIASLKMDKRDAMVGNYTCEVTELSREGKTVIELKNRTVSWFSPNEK
Experimental: as §1

[5] = target: T1, human full-length CD47 protein; test: competition flow cytometry on CD47 stably transfected cells, antibody titrated against 5 µg hSIRPa (ECD)-Fc-Biotin
Experimental: 100 uL was added in each sample, and a negative control (hIgG4) was set at the same time. […] (2) The cells were washed twice with PBS, SA-PE of eBioscience was added. It was incubated for 20 min at 4° C., and the cells were washed twice with PBS and then detected by flow cytometry (BD FACS Calibur), using graphpad prism 6 software for data processing.

percent of cells positive for SIRPa-biotin (quadrant Q2) in the presence of the antibody at 1ug/ml [1]: 97.2% | percent of cells positive for SIRPa-biotin (quadrant Q2) in the presence of the antibody [2]: 97.3%
Molecule: negative control antibody

binding result [3]: no binding | binding result [4]: no binding
B1: humanized CD47 single domain antibody (Nb1902) expressed from E. coli vector pMECS (VHH)
VHH: QVQLQESGGGLVQPGGSLRLSCAASGYAYTSDCMGWFRQTPGKGLEGVALIYTPGNSTNYADSVKGRFTISQDNSKSTVYLQMNSLRAEDTAMYYCAARRGACSLRLPFFYWGQGTLVTVSS
notes: also called humanized single domain antibody; not shown: C-terminal tag stretch from the pMECS vector (the HA tag used for detection and any other vector-encoded tag)

IC50 [5]: 12.3 µg/mL
B2: control antibody B6H12 (antibody)
chain: EVQLVESGGDLVKPGGSLKLSCAASGFTFSGYGMSWVRQTPDKRLEWVATITSGGTYTYYPDSVKGRFTISRDNAKNTLYLQIDSLKSEDTAIYFCARSLAGNAMDYWGQGTSVTVSSGGGGSGGGGSGGGGSDIVMTQSPATLSVTPGDRVSLSCRASQTISDYLHWYQQKSHESPRLLIKFASQSISGIPSRFSGSGSGSDFTLSINSVEPEDVGVYYCQNGHGFPRTFGGGTKLEIK
